# Assay results published in paper PMC5565208.
# Where two headings read alike, the source gives them in different places.
# What was measured:
# [1] = molecular target: BifR (biofilm regulator), MarR homologue from Burkholderia thailandensis E264 (Burkholderia thailandensis E264); assay: SEC
# [2] = molecular target: BifR (biofilm regulator), MarR homologue from Burkholderia thailandensis E264 (Burkholderia thailandensis E264); assay: cross-linking
# [3] = molecular target: BifR (biofilm regulator), MarR homologue from Burkholderia thailandensis E264 (Burkholderia thailandensis E264); assay: SEC; remark: listed apart in the source
# [4] = test system: BifR (Burkholderia thailandensis E264); assay: EMSA
# [5] = test system: BifR (Burkholderia thailandensis E264); assay: EMSA; remark: listed apart in the source
stoichiometry N [1],stoichiometry N [2],stoichiometry N [3],Substance,Kd [4],Kd [5]
4,2,2,"BifR (biofilm regulator), MarR homologue from Burkholderia thailandensis E264 (natural protein)",–,–
–,–,–,355 bp ecsC-emrB operator DNA,1.4 nM,0.9 nM
